{"source": "paper PMC2680285", "binders": {"B1": {"name": "wild-type GADD45α (growth arrest- and DNA damage-induced gene 45α), C-terminally myc-tagged, P24522 1-165 (natural protein)", "chain": "MTLEEFSAGEQKTERMDKVGDALEEVLSKALSQRTITVGVYEAAKLLNVDPDNVVLCLLAADEDDDRDVALQIHFTLIQAFCCENDINILRVSNPGRLAELLLLETDAGPAASEGAEQPPDLHCVLVTNPHSSQWKDPALSQLICFCRESRYMDQWVPVINLPER"}}, "molecular_target": "T1, wild-type GADD45α (growth arrest- and DNA damage-induced gene 45α), C-terminally myc-tagged (human), P24522", "T1 chain": "B1 chain", "assay": "native gel or EMSA", "settings": "remark: other sources report otherwise", "note": "Values joined by “and” are separate entries in the source; they are usually repeats but may differ in a detail not shown here. Identical values can stand only once.", "data": [{"binder": "B1", "values": [{"measurement": "stoichiometry N", "value": "3 and 4"}]}]}
